Patent US20210107971A1 (UCB, published 2021)
No end group written: not given here.

T1: biotinylated peptide corresponding to residues 117 to 126 of human alpha synuclein (peptide PVDPDNEAYE) (human, also: biotinylated, site not given here)
T1 construct: Captured on streptavidin plates for ELISA
T1 peptide: PVDPDNEAYE


What was measured:
[1] = biological target: T2, purified recombinant human alpha synuclein fibrils (human, UniProt P37840 1-140); assay: cell-based or functional assay
[2] = biological target: T2, purified recombinant human alpha …; assay: affinity for human alpha synuclein fibrils, IgG4P; method not given; Table 6 humanization screen, separate from Table 7B
[3] = biological target: T2, purified recombinant human alpha …; assay: SPR, Biacore T200, as in Example 3; full-length IgG4P injected
Method: (§1) Interaction kinetics were determined by using surface plasmon resonance technology on a Biacore T200 instrument. Three different ligands including recombinant full-length human alpha synuclein monomer, purified recombinant human alpha synuclein fibrils, and purified recombinant mouse alpha synuclein fibrils, prepared as described herein, were each immobilized on three different flow cells of a CM5 chip surface using amine-coupling chemistry. The three ligands were prepared in 10 mM NaAc, pH 3.5, and immobilized onto separate flow cell surfaces to reach an immobilization level of about 30 response units (RU) for alpha synuclein monomer, about 40 RU for human alpha synuclein fibrils, and about 300 RU for mouse alpha synuclein fibrils respectively, at a flow rate of 10 μI/min. The buffer HBS-EP+(GE healthcare Bio-Sciences AB) was used as running buffer for both ligand immobilization and kinetics assay. […] The surface was regenerated by one injection of 50 mM HCl for 90 s at 10 μI/min, and another injection of 50 mM HCl for 60 s at 10 μI/min. The data were analyzed using the Biacore T200 evaluation software (version 3.0) using the bivalent analyte model with assumed no bulk contribution (RI=0) and global Rmax for IgG format, and 1:1 model with flexible bulk contribution (local RI) and global Rmax.

[4] = biological target: T3, recombinant full-length human alpha synuclein monomer (human, UniProt P37840 1-140); assay: as above
Method: as §1

[5] = biological target: T3, recombinant full-length human alpha …; assay: SPR, Biacore T200, as in Example 3; full-length IgG4P injected; human monomer
Method: as §1

[6] = biological target: T2, purified recombinant human alpha …; assay: SPR, Biacore T200, as in Example 3; full-length IgG4P injected; human fibril
[7] = biological target: purified recombinant human alpha synuclein fibrils (human, UniProt P37840 1-140); assay: affinity for human alpha synuclein fibrils, IgG4P; method not given
[8] = biological target: T2, purified recombinant human alpha …; assay: as above; remark: listed apart in the source
[9] = biological target: T2, purified recombinant human alpha …; assay: kinetics table of Example 9 (method not named there; same values as Table 7B, SPR)
[10] = biological target: T3, recombinant full-length human alpha …; assay: as above
[11] = biological target: T2, purified recombinant human alpha …; assay: cell-based or functional assay; remark: listed apart in the source
[12] = biological target: T4, monoclonal 6470 rabbit Fab; assay: competitive SPR (Biacore 3000): 1 µM peptide with 50 nM Fab; competitor immobilised human alpha synuclein monomer
T4 construct: Fab heavy chain entry carries a C-terminal His tag
Method: (§2) Recombinant human alpha synuclein monomer and pre-formed alpha synuclein fibrils were immobilized on a CM5 chip using a Biacore 3000 instrument (GE Healthcare). Following activation of the carboxymethyl dextran surface by injection of 100 μl of a fresh 1:1 (v/v) mixture of 50 mM N-hydroxysuccimide and 200 mM 1-ethyl-3-(3-dimethylaminopropyl)-carbodiimide at a flow rate of 10 μl/min HBS-EP (GE Healthcare) as running buffer, coupling was achieved by injecting 100 μl of monomer and fibrils, at 5 μM in 10 mM acetate pH 5.0, over separate flow cells. A reference flow cell was activated in the same manner and then all flow cell surfaces were deactivated with a 50 μl pulse of 1 M ethanolamine HCl pH 8.5.
(§3) Peptide solutions were prepared in running buffer at 100 μM and a peptide blank control prepared as a 1 in 100 dilution of DMSO in running buffer. […] Sensograms were recorded for each sample by injecting 30 μl of the mixture at 10 μl/min and recording a report point 5 seconds before the end of the injection. […] Control cycles were alternated with peptide cycles.

[13] = biological target: T4, monoclonal 6470 rabbit Fab; assay: competitive SPR (Biacore 3000): 1 µM peptide with 50 nM Fab; competitor immobilised human alpha synuclein fibrils
Method: as §2, §3

[14] = biological target: T1, biotinylated peptide corresponding to …; assay: streptavidin-capture ELISA on biotinylated peptide PVDPDNEAYE, HRP anti-rabbit IgG Fc, TMB, OD 630 nm
Method: Purified antibodies were then subject to further screening by ELISA. […] Plates were blocked with 1% w/v PEG/PBS and then incubated with several dilutions of purified transient supernatant. Secondary HRP-conjugated goat anti-rabbit IgG Fc antibody (Stratech Scientific Ltd/Jackson ImmunoResearch) was added to plates, followed by visualization of binding with TMB substrate (3,3′,5,5′-Tetramethylbenzidine, from EMD Millipore; 10 μl/well).

[15] = biological target: T5, human beta synuclein (rPeptide) (human, UniProt Q16143 1-134); assay: Western blot, 1 microgram synuclein
T5 construct: also called rPeptide beta synuclein
T5 sequence (Q16143 whole entry): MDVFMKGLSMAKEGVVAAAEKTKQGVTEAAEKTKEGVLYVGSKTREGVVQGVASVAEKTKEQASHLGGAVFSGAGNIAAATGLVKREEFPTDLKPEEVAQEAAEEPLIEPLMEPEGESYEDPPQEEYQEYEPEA
Method: The binding of antibodies raised against human alpha synuclein to human beta synuclein were tested by Western blot using rPeptide beta synuclein. […] The membrane was blocked in PBS with 3% BSA and 0.1% Tween20. […] The blot was washed extensively in PBS with 0.1% Tween20, PBS and water. Chemi-luminescence was measured after addition of ECL Western blot substrate (Pierce).

Binder	IC50, inhibition of alpha synuclein aggregation induced by fibrils in HEK293F cells expressing alpha synuclein (% pSer129+ cells) [1]	koff [3]	kon [3]	koff [4]	kon [4]	% inhibition [12]	% inhibition [13]	further results
6470gL3gH23 IgG4P (antibody, V domains shown, Full-length humanized human IgG4P; also called VR6470 gL3) VH: EVQLLESGGGLVQPGGSLRLSCAVSGIDLSSHDMYWVRQAPGKGLEYIGAIYASGSTYYASWAKGRFTISRDNSKNTVYLQMNSLRAEDTAVYYCARIHYGNSGGLWGQGTLVTVSS VL: DIQMTQSPSSLSASVGDRVTITCQASQSVYKNNYLAWFQQKPGKAPKQLIYGASTLASGVPSRFSGSGSGTQFTLTISSLQPEDFATYYCAGYKGGRNDGFAFGGGTKVEIKR	< 5 nM	0.000142 s⁻¹	855000 M⁻¹ s⁻¹	0.0242 s⁻¹	1.2e+06 M⁻¹ s⁻¹	–	–	Kd [2]: 0.148 nM; Kd [5]: 20.1 nM; Kd [6]: 0.166 nM
6470gL3gH25 (antibody, V domains shown) VH: EVQLLESGGGLVQPGGSLRLSCAVSGIDLSSHDMYWVRQAPGKGLEWIGAIYASGSTYYASWAKGRFTISKDSSKNTVYLQMNSLRAEDTAVYYCARIHYGNSGGLWGQGTLVTVSS VL: DIQMTQSPSSLSASVGDRVTITCQASQSVYKNNYLAWFQQKPGKAPKQLIYGASTLASGVPSRFSGSGSGTQFTLTISSLQPEDFATYYCAGYKGGRNDGFAFGGGTKVEIKR	–	–	–	–	–	–	–	Kd [7]: 76 nM
VR6470 gL3-N33R; gH23-S56N-N102H (antibody, human IgG4 S228P, kappa, V domains shown, Full-length humanized human IgG4P) VH: EVQLLESGGGLVQPGGSLRLSCAVSGIDLSSHDMYWVRQAPGKGLEYIGAIYASGNTYYASWAKGRFTISRDNSKNTVYLQMNSLRAEDTAVYYCARIHYGHSGGLWGQGTLVTVSS VL: DIQMTQSPSSLSASVGDRVTITCQASQSVYKNRYLAWFQQKPGKAPKQLIYGASTLASGVPSRFSGSGSGTQFTLTISSLQPEDFATYYCAGYKGGRNDGFAFGGGTKVEIKR	< 5 nM	0.000116 s⁻¹	2.07e+06 M⁻¹ s⁻¹	0.00594 s⁻¹	3.48e+06 M⁻¹ s⁻¹	–	–	Kd [3]: 0.056 nM; Kd [4]: 1.71 nM
6470gL3gH36 IgG4P (antibody, V domains shown, Full-length humanized human IgG4P; also called VR6470 gL3; VR6470) VH: EVQLLESGGGLVQPGGSLRLSCAVSGIDLSSHDMYWVRQAPGKGLEYIGAIYASGSTYYASWAKGRFTISRDSSKNTLYLQMNSLRAEDTAVYYCARIHYGNSGGLWGQGTLVTVSS VL: DIQMTQSPSSLSASVGDRVTITCQASQSVYKNNYLAWFQQKPGKAPKQLIYGASTLASGVPSRFSGSGSGTQFTLTISSLQPEDFATYYCAGYKGGRNDGFAFGGGTKVEIKR	< 5 nM	0.000317 s⁻¹	1.07e+06 M⁻¹ s⁻¹	0.0174 s⁻¹	1.15e+06 M⁻¹ s⁻¹	–	–	Kd [8]: 0.166 nM; IC50, inhibition of alpha synuclein aggregation induced by fibrils on mouse primary neurons (pSer129 alpha synuclein signal) [1]: < 4 nM; Kd [9]: 0.298 nM; koff [9]: 0.000317 s⁻¹; kon [9]: 1.07e+06 M⁻¹ s⁻¹; Kd [10]: 15.1 nM; koff [10]: 0.0174 s⁻¹; kon [10]: 1.15e+06 M⁻¹ s⁻¹; IC50 (nM), HEK cell-based aggregation assay [11]: < 5 nM; Kd [3]: 0.298 nM; Kd [4]: 15.1 nM
Ac-DNEAYEMPSE-NH2 (Synthetic peptide of human alpha synuclein) [AS121-130]	–	–	–	–	–	20%	27%	–
Ac-YEMPSEEGYQ-NH2 (Synthetic peptide of human alpha synuclein) [AS125-134]	–	–	–	–	–	34%	52%	–
monoclonal 6470 rabbit IgG1 (antibody, V domains shown, Recombinant rabbit IgG1/kappa expressed in Expi293 cells) VH: QSVEESGGRLVTPGTPLTLTCTVSGIDLSSHDMYWVRQAPGKGLEYIGAIYASGSTYYASWAKGRFTISKTSTTVDLKMTSLTTEDTATYFCARIHYGNSGGLWGQGTLVTVSS VL: AIVMTQTPSSKSVAVGDTVTINCQASQSVYKNNYLAWFQQKPGQPPKQLIYGASTLASGVPSRFKGSGSGTQFTLTISDVVCDDAATYYCAGYKGGRNDGFAFGGGTEVVVKR	–	–	–	–	–	–	–	binding result [14]: no binding; binding result [15]: no binding
Ac-EAYEMPSEEG-NH2 (Synthetic peptide of human alpha synuclein) [AS123-132]	–	–	–	–	–	37%	54%	–
